Here are results for 1 molecule from patent US20220275350A1 (MAX PLANCK GESELLSCHAFT ZUR F RDERUNG DER WISSENSCHAFTEN E V, published 2022).

For this assay, the target named is T1, cpHaloΔ9mer.
T1 construct: also called cpHalo_9mer; cpHalo156-141
Put plainly: ITC; 9mer peptide (~30 mM) titrated into 0.6 mM cpHaloΔ9mer; three independent measurements; one-site model.

T1 sequence (chain, as listed by the source mutant): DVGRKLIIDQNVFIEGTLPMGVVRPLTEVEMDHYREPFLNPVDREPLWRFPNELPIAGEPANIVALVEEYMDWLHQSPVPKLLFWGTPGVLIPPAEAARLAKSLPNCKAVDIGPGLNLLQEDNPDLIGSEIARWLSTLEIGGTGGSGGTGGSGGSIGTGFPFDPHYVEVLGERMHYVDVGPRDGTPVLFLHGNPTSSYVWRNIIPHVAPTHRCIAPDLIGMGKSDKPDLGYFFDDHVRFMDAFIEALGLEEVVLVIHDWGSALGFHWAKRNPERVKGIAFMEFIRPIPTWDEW
Procedure: Heat of dilution of the peptide was subtracted prior to the analysis. Kd was calculated from three independent measurements, error represents standard deviation.
This maximal concentration of peptide was titrated against a 0.6 mM cpHaloΔ9mer (FIG. 1).

B1: 9mer peptide (peptide)
peptide: ARETFQAFR
notes: Free peptide titrated in the ITC assay; also called PEP1
As to B1, binding was put at a Kd of 5.3 mM.
